Measurements published in patent publication US20120207760A1.

B1: TCN-523 (5248_A17) (antibody, V domains shown)
VH: QVQLVQSGAEVKKPGSSVKVSCKASGGSFSNYAFSWVRQAPGQGLEWMGGTIPLLGTTNYAQKFQGRVTISADQFTSTAYMELGSLRSEDTAVYYCTRRKMTTAFDSWGQGTLVTVSS
VL: QPVLTQPPSASASLGASVTLTCTLSSAYSNYKVDWYQQRPGKGPRFVMRVGTGGIVGSKGDGIPDRFSVLGSGLNRYLTIKNIQEEDESDYHCGADHGSGSNFVSPYVFGGGTKLTVL
B2: TCN-504 (3251_K17) (antibody, V domains shown)
VH: QVQLQESGPGLVKPSETLSLTCAVSGVSISNIDFYWGWIRQPPGKGLEWIGNIYYTGITFYNPSLSSRVAISIDTSKNQFSLTLTSVTAADTAMYYCARHYGDSEAINDAFDIWGQGTMLTVSS
VL: EIVMTQSPATLSVSPGERATLSCRASQSVGNSLAWYQQRPGQAPRLLIYGASTRATGIPPRFSGSGSGTEFTLTISSLQTEDFAVYYCQQYINWRPLSFGGGTKVEIK

Columns and labels:
Settings in all cases: remark: other sources report otherwise
[1] = molecular target: T1, recombinant homotrimeric HA, A/California/4/09 H1N1 (Influenza A virus A/California/4/09 (H1N1)); experiment: trimeric HA microarray, transfection set 1
[2] = molecular target: T2, recombinant homotrimeric HA, A/Egypt/3300-NAMRU3/08 H5N1 (Influenza A virus A/Egypt/3300-NAMRU3/08 (H5N1)); experiment: trimeric HA microarray, transfection set 1
[3] = molecular target: T3, recombinant homotrimeric HA, A/Hong Kong/2108/03 H9N2 (Influenza A virus A/Hong Kong/2108/03 (H9N2)); experiment: trimeric HA microarray, transfection set 1
[4] = molecular target: T4, recombinant homotrimeric HA, A/Indonesia/5/05 H5N1 (Influenza A virus A/Indonesia/5/05 (H5N1)); experiment: trimeric HA microarray, transfection set 1
[5] = molecular target: T5, recombinant homotrimeric HA, A/Japan/305/57 H2N2 (Influenza A virus A/Japan/305/57 (H2N2)); experiment: trimeric HA microarray, transfection set 1
[6] = molecular target: T6, recombinant homotrimeric HA, A/Solomon Islands/3/06 H1N1 (Influenza A virus A/Solomon Islands/3/06 (H1N1)); experiment: trimeric HA microarray, transfection set 1
[7] = molecular target: T7, recombinant homotrimeric HA, A/South Carolina/1/18 H1N1 (Influenza A virus A/South Carolina/1/18 (H1N1)); experiment: trimeric HA microarray, transfection set 1
[8] = molecular target: T8, recombinant homotrimeric HA, A/Vietnam/1203/04 H5N1 (Influenza A virus A/Vietnam/1203/04 (H5N1)); experiment: trimeric HA microarray, transfection set 1
[9] = molecular target: recombinant homotrimeric HA, A/chicken/Vietnam/NCVD-016/08 H5N1 (Influenza A virus A/chicken/Vietnam/NCVD-016/08 (H5N1)); experiment: trimeric HA microarray, transfection set 1
[10] = molecular target: recombinant homotrimeric HA, A/common magpie/Hong Kong/5052/07 H5N1 (Influenza A virus A/common magpie/Hong Kong/5052/07 (H5N1)); experiment: trimeric HA microarray, transfection set 1
[11] = molecular target: T9, recombinant homotrimeric HA, A/swine/Ontario/01911-2/99 H4N6 (Influenza A virus A/swine/Ontario/01911-2/99 (H4N6)); experiment: trimeric HA microarray, transfection set 1
[12] = molecular target: T1, recombinant homotrimeric HA, …; experiment: trimeric HA microarray, transfection set 2
[13] = molecular target: T2, recombinant homotrimeric HA, …; experiment: trimeric HA microarray, transfection set 2
[14] = molecular target: T3, recombinant homotrimeric HA, A/Hong …; experiment: trimeric HA microarray, transfection set 2
[15] = molecular target: T5, recombinant homotrimeric HA, …; experiment: trimeric HA microarray, transfection set 2
[16] = molecular target: T1, recombinant homotrimeric HA, …; experiment: trimeric HA microarray, transfection set 4
[17] = molecular target: T4, recombinant homotrimeric HA, …; experiment: trimeric HA microarray, transfection set 4
[18] = molecular target: T5, recombinant homotrimeric HA, …; experiment: trimeric HA microarray, transfection set 4
[19] = molecular target: T6, recombinant homotrimeric HA, A/Solomon …; experiment: trimeric HA microarray, transfection set 4
[20] = molecular target: T7, recombinant homotrimeric HA, A/South …; experiment: trimeric HA microarray, transfection set 4
[21] = molecular target: T8, recombinant homotrimeric HA, …; experiment: trimeric HA microarray, transfection set 4
[22] = molecular target: T9, recombinant homotrimeric HA, …; experiment: trimeric HA microarray, transfection set 4
[23] = molecular target: T1, recombinant homotrimeric HA, …; experiment: trimeric HA microarray, transfection set 5
[24] = molecular target: T4, recombinant homotrimeric HA, …; experiment: trimeric HA microarray, transfection set 5
[25] = molecular target: T5, recombinant homotrimeric HA, …; experiment: trimeric HA microarray, transfection set 5
[26] = molecular target: T6, recombinant homotrimeric HA, A/Solomon …; experiment: trimeric HA microarray, transfection set 5
[27] = molecular target: T7, recombinant homotrimeric HA, A/South …; experiment: trimeric HA microarray, transfection set 5
[28] = molecular target: T8, recombinant homotrimeric HA, …; experiment: trimeric HA microarray, transfection set 5
[29] = molecular target: T9, recombinant homotrimeric HA, …; experiment: trimeric HA microarray, transfection set 5

Binder | Trimeric HA Binding RLU [1] [RLU] | Trimeric HA Binding RLU [2] [RLU] | Trimeric HA Binding RLU [3] [RLU] | Trimeric HA Binding RLU [4] [RLU] | Trimeric HA Binding RLU [5] [RLU] | Trimeric HA Binding RLU [6] [RLU] | Trimeric HA Binding RLU [7] [RLU] | Trimeric HA Binding RLU [8] [RLU] | Trimeric HA Binding RLU [9] [RLU] | Trimeric HA Binding RLU [10] [RLU] | Trimeric HA Binding RLU [11] [RLU] | Trimeric HA Binding RLU [12] [RLU] | Trimeric HA Binding RLU [13] [RLU] | Trimeric HA Binding RLU [14] [RLU] | Trimeric HA Binding RLU [15] [RLU] | Trimeric HA Binding RLU [16] [RLU] | Trimeric HA Binding RLU [17] [RLU] | Trimeric HA Binding RLU [18] [RLU] | Trimeric HA Binding RLU [19] [RLU] | Trimeric HA Binding RLU [20] [RLU] | other results
B1 | 17700 | 25500 | 41 | 18500 | 191 | 6780 | 26400 | 80 | 10800 | 6240 | 49 | 18700 | 30700 | 18 | 882 | 28800 | 24500 | 3840 | 371 | 23000 | Trimeric HA Binding RLU [21]: 30900 RLU; Trimeric HA Binding RLU [22]: 850 RLU; Trimeric HA Binding RLU [23]: 34400 RLU; Trimeric HA Binding RLU [24]: 55000 RLU; Trimeric HA Binding RLU [25]: 22000 RLU; Trimeric HA Binding RLU [26]: 37600 RLU; Trimeric HA Binding RLU [27]: 52000 RLU; Trimeric HA Binding RLU [28]: 27800 RLU; Trimeric HA Binding RLU [29]: 1700 RLU
B2 | 18300 | 16100 | 78 | 16600 | 15100 | 29800 | 21500 | 1300 | 27800 | 29700 | 26500 | 15600 | 21400 | 23 | 22600 | 549 | 18200 | 19600 | 14600 | 21700 | Trimeric HA Binding RLU [21]: 25700 RLU; Trimeric HA Binding RLU [22]: 21800 RLU; Trimeric HA Binding RLU [23]: 17600 RLU; Trimeric HA Binding RLU [24]: 18500 RLU; Trimeric HA Binding RLU [25]: 23300 RLU; Trimeric HA Binding RLU [26]: 30100 RLU; Trimeric HA Binding RLU [27]: 32000 RLU; Trimeric HA Binding RLU [28]: 21500 RLU; Trimeric HA Binding RLU [29]: 54800 RLU
